# Source: patent publication US20030068675, “Position dependent recognition of GNN nucleotide triplets by zinc fingers” (published 2003)
# T1: ZFP SBS#1287 (synthetic)
# T1 chain: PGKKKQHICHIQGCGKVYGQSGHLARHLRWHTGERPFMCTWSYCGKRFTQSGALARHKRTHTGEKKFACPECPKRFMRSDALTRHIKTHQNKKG
# T2: ZFP SBS#1277 (synthetic)
# T2 chain: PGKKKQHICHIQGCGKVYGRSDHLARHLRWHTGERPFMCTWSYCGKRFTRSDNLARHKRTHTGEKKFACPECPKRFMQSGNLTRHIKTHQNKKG
# T3: ZFP SBS#1241 (synthetic)
# T3 chain: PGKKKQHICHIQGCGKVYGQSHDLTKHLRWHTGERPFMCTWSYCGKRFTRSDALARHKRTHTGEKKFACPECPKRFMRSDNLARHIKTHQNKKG
# T4: ZFP SBS#1257 (synthetic, UniProt P08047)
# T4 chain: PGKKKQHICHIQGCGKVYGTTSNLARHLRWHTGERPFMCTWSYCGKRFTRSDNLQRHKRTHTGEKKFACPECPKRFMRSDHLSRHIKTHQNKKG
# T5: ZFP SBS#541 (synthetic, UniProt P08047)
# T5 chain: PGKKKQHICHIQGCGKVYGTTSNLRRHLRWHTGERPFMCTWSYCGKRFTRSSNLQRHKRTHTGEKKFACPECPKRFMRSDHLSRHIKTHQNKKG
# T6: ZFP SBS#1258 (synthetic, UniProt P08047)
# T6 chain: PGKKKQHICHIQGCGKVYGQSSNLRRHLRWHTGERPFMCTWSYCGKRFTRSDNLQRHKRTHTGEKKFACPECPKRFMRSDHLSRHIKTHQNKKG
# T7: ZFP SBS#261 (synthetic)
# T7 chain: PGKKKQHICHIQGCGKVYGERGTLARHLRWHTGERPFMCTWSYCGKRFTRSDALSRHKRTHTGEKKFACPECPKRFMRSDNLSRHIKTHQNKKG
# T8: ZFP SBS#1247 (synthetic)
# T8 chain: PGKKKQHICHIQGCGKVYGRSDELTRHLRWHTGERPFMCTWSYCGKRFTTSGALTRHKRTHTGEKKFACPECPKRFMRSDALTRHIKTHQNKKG
# T9: ZFP SBS#1246 (synthetic)
# T9 chain: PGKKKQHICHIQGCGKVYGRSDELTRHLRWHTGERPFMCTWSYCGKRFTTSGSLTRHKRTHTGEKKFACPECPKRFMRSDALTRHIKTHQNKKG
# T10: ZFP SBS#1003 (synthetic)
# T10 chain: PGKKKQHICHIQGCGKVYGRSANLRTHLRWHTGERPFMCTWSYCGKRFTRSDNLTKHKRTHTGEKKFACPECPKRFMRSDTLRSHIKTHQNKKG
# T11: ZFP SBS#1020 (synthetic)
# T11 chain: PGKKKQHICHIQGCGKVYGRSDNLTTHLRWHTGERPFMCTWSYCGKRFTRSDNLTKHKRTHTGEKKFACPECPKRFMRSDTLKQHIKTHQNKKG
# T12: ZFP SBS#1255 (synthetic)
# T12 chain: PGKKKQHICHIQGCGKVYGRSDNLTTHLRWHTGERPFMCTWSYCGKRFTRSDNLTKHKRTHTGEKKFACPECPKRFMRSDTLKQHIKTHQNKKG
# T13: ZFP SBS#1004 (synthetic)
# T13 chain: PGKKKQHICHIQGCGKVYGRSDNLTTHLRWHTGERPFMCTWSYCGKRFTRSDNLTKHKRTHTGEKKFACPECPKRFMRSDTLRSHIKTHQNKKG
# T14: ZFP SBS#1271 (synthetic)
# T14 chain: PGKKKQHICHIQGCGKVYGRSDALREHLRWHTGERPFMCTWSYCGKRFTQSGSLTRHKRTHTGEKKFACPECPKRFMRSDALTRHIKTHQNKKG
# T15: ZFP SBS#1249 (synthetic)
# T15 chain: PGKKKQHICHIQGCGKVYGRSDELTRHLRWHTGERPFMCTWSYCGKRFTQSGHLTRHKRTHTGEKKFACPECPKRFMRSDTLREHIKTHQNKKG
# T16: ZFP SBS#1253 (synthetic)
# T16 chain: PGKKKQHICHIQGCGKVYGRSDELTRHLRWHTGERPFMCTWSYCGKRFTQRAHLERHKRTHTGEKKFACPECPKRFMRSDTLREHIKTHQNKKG
# T17: ZFP SBS#1288 (synthetic)
# T17 chain: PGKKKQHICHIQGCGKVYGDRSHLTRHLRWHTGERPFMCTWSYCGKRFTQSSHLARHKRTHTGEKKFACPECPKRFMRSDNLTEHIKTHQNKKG
# T18: ZFP SBS#1266 (synthetic)
# T18 chain: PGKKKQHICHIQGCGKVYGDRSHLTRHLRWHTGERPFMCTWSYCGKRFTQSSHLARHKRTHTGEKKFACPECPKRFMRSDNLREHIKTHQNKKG
# T19: ZFP SBS#1278 (synthetic)
# T19 chain: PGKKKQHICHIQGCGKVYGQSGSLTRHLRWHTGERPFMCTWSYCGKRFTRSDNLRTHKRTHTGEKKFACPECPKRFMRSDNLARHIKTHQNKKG
# T20: ZFP SBS#1268 (synthetic)
# T20 chain: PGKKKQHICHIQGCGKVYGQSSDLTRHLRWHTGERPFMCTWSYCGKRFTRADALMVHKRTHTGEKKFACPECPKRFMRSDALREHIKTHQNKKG
# T21: ZFP SBS#1269 (synthetic)
# T21 chain: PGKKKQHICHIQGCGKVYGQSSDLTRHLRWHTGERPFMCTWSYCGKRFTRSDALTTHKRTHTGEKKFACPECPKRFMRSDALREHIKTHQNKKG
# T22: ZFP SBS#1282 (synthetic)
# T22 chain: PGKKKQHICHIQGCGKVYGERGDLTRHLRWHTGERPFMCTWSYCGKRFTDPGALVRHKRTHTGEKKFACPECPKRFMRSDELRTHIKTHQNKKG
# T23: ZFP SBS#1265 (synthetic)
# T23 chain: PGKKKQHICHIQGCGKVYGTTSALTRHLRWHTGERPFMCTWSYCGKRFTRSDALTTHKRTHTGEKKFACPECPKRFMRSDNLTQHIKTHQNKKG
# T24: ZFP SBS#1264 (synthetic)
# T24 chain: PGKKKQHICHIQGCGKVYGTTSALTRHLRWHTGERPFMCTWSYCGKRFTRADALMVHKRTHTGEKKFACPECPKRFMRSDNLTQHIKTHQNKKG
# T25: ZFP SBS#1260 (synthetic)
# T25 chain: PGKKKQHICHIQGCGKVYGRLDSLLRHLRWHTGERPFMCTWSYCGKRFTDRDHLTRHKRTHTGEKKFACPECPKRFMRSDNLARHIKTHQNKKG
# T26: ZFP SBS#1259 (synthetic)
# T26 chain: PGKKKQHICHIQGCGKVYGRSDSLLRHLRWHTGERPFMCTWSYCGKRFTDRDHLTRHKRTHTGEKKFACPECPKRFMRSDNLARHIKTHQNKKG
# What was measured:
# Assay in all cases: EMSA
# Conditions in all cases: tags: MBP fusion
# ZFP SBS#1287 = target: T1, ZFP SBS#1287
# Outline: (§1)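 Purified ZFP was titrated against labeled double-stranded target (1 nM or lower, at least 10-fold below expected Kd) carrying the natural binding site with flanks. Binding buffer was 10 mM Tris pH 7.5, 100 mM KCl, 1 mM MgCl2, 0.1 mM ZnCl2, 5 mM DTT, 10% glycerol, 0.02% BSA, with equilibration for at least 45 min. Bound and free target were separated on a 10% polyacrylamide gel.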
# ZFP SBS#1250 = ZFP SBS#1250 (synthetic)
# ZFP SBS#1250 (synthetic), sequence (chain, as listed by the source): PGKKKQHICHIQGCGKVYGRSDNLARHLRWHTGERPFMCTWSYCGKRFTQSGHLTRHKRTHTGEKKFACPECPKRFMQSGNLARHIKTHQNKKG
# Outline: as §1
# ZFP SBS#1237 = ZFP SBS#1237 (synthetic)
# ZFP SBS#1237 (synthetic), sequence (chain, as listed by the source): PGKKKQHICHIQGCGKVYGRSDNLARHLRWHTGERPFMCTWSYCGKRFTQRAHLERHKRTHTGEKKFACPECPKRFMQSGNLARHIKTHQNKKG
# Outline: as §1
# ZFP SBS#1277 = target: T2, ZFP SBS#1277
# Outline: as §1
# ZFP SBS#1279 = ZFP SBS#1279 (synthetic)
# Outline: as §1
# ZFP SBS#1241 = target: T3, ZFP SBS#1241
# Outline: as §1
# ZFP SBS#1257 = target: T4, ZFP SBS#1257
# Outline: as §1
# ZFP SBS#541 = target: T5, ZFP SBS#541
# Outline: as §1
# ZFP SBS#1258 = target: T6, ZFP SBS#1258
# Outline: as §1
# ZFP SBS#261 = target: T7, ZFP SBS#261
# Outline: as §1
# ZFP SBS#1274 = ZFP SBS#1274 (synthetic)
# ZFP SBS#1274 (synthetic), sequence (chain, as listed by the source): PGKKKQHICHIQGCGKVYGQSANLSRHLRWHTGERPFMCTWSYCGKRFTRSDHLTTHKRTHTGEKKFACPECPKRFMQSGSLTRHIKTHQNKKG
# Outline: as §1
# ZFP SBS#1275 = ZFP SBS#1275 (synthetic)
# ZFP SBS#1275 (synthetic), sequence (chain, as listed by the source): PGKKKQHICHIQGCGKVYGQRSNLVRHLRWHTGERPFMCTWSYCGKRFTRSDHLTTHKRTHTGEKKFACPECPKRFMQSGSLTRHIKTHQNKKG
# Outline: as §1
# ZFP SBS#1247 = target: T8, ZFP SBS#1247
# Outline: as §1
# ZFP SBS#1246 = target: T9, ZFP SBS#1246
# Outline: as §1
# ZFP SBS#998 = ZFP SBS#998 (synthetic)
# ZFP SBS#998 (synthetic), sequence (chain, as listed by the source): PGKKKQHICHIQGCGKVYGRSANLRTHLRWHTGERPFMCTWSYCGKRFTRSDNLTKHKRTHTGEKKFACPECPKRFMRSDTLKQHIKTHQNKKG
# Outline: as §1
# ZFP SBS#1003 = target: T10, ZFP SBS#1003
# Outline: as §1
# ZFP SBS#1020 = target: T11, ZFP SBS#1020
# Outline: as §1
# ZFP SBS#1255 = target: T12, ZFP SBS#1255
# Outline: as §1
# ZFP SBS#1004 = target: T13, ZFP SBS#1004
# Outline: as §1
# ZFP SBS#1271 = target: T14, ZFP SBS#1271
# Outline: as §1
# ZFP SBS#1249 = target: T15, ZFP SBS#1249
# Outline: as §1
# ZFP SBS#1253 = target: T16, ZFP SBS#1253
# Outline: as §1
# ZFP SBS#1288 = target: T17, ZFP SBS#1288
# Outline: as §1
# ZFP SBS#1266 = target: T18, ZFP SBS#1266
# Outline: as §1
# ZFP SBS#1234 = ZFP SBS#1234 (synthetic)
# ZFP SBS#1234 (synthetic), sequence (chain, as listed by the source): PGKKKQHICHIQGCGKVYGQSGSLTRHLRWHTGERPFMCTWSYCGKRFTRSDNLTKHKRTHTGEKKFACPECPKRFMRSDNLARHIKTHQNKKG
# Outline: as §1
# ZFP SBS#1236 = ZFP SBS#1236 (synthetic)
# ZFP SBS#1236 (synthetic), sequence (chain, as listed by the source): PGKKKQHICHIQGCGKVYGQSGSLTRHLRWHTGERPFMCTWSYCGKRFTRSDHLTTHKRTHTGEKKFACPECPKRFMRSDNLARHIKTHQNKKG
# Outline: as §1
# ZFP SBS#1278 = target: T19, ZFP SBS#1278
# Outline: as §1
# ZFP SBS#1268 = target: T20, ZFP SBS#1268
# Outline: as §1
# ZFP SBS#1269 = target: T21, ZFP SBS#1269
# Outline: as §1
# ZFP SBS#490 = ZFP SBS#490 (synthetic)
# ZFP SBS#490 (synthetic), sequence (chain, as listed by the source): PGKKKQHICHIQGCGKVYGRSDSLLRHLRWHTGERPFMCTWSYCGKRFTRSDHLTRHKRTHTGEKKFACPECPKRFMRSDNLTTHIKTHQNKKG
# Outline: as §1
# ZFP SBS#1282 = target: T22, ZFP SBS#1282
# Outline: as §1
# ZFP SBS#1265 = target: T23, ZFP SBS#1265
# Outline: as §1
# ZFP SBS#1264 = target: T24, ZFP SBS#1264
# Outline: as §1
# ZFP SBS#1260 = target: T25, ZFP SBS#1260
# Outline: as §1
# ZFP SBS#1259 = target: T26, ZFP SBS#1259
# Outline: as §1
binder,measurement,setting,value
GTGGTAGGA (dsDNA) DNA 1: GTGGTAGGA DNA 2: TCCTACCAC,Kd,ZFP SBS#1287,0.152 nM
GAAGGAGAG (dsDNA) DNA 1: GAAGGAGAG DNA 2: CTCTCCTTC,Kd,ZFP SBS#1250,0.31 nM
same,Kd,ZFP SBS#1237,0.065 nM
GAAGAGGGG (dsDNA) DNA 1: GAAGAGGGG DNA 2: CCCCTCTTC,Kd,ZFP SBS#1277,0.421 nM
GAGGTGTCA (dsDNA) DNA 1: GAGGTGTCA DNA 2: TGACACCTC,Kd,ZFP SBS#1279,0.025 nM
same,Kd,ZFP SBS#1241,0.027 nM
GGGGAGGAT (dsDNA) DNA 1: GGGGAGGAT DNA 2: ATCCTCCCC,Kd,ZFP SBS#1257,1 nM
same,Kd,ZFP SBS#541,3 nM
same,Kd,ZFP SBS#1258,2 nM
GAGGTGGCC (dsDNA) DNA 1: GAGGTGGCC DNA 2: GGCCACCTC,Kd,ZFP SBS#261,0.5 nM
GCATGGGAA (dsDNA) DNA 1: GCATGGGAA DNA 2: TTCCCATGC,Kd,ZFP SBS#1274,0.306 nM
same,Kd,ZFP SBS#1275,0.326 nM
GTGGTTGCG (dsDNA) DNA 1: GTGGTTGCG DNA 2: CGCAACCAC,Kd,ZFP SBS#1247,0.117 nM
same,Kd,ZFP SBS#1246,0.051 nM
ACGTAGTAG (dsDNA) DNA 1: ACGTAGTAG DNA 2: CTACTACGT,Kd,ZFP SBS#998,0.23 nM
same,Kd,ZFP SBS#1003,0.118 nM
same,Kd,ZFP SBS#1020,0.69 nM
same,Kd,ZFP SBS#1255,0.69 nM
same,Kd,ZFP SBS#1004,1.4 nM
GTGGCACTG (dsDNA) DNA 1: GTGGCACTG DNA 2: CAGTGCCAC,Kd,ZFP SBS#1271,0.915 nM
CCGGGAGCG (dsDNA) DNA 1: CCGGGAGCG DNA 2: CGCTCCCGG,Kd,ZFP SBS#1249,0.26 nM
same,Kd,ZFP SBS#1253,0.228 nM
CAGGGTGGC (dsDNA) DNA 1: CAGGGTGGC DNA 2: GCCACCCTG,Kd,ZFP SBS#1288,4.1 nM
same,Kd,ZFP SBS#1266,6.1 nM
GAGTAGGCA (dsDNA) DNA 1: GAGTAGGCA DNA 2: TGCCTACTC,Kd,ZFP SBS#1234,0.101 nM
same,Kd,ZFP SBS#1236,0.065 nM
same,Kd,ZFP SBS#1278,0.019 nM
CTGTTGGCT (dsDNA) DNA 1: CTGTTGGCT DNA 2: AGCCAACAG,Kd,ZFP SBS#1268,1.52 nM
same,Kd,ZFP SBS#1269,12.3 nM
TAGGGGGTGG (dsDNA) DNA 1: TAGGGGGTGG DNA 2: CCACCCCCTA,Kd,ZFP SBS#490,1.5 nM
TCGGTCGCC (dsDNA) DNA 1: TCGGTCGCC DNA 2: GGCGACCGA,Kd,ZFP SBS#1282,74.1 nM
AAGTTGGTT (dsDNA) DNA 1: AAGTTGGTT DNA 2: AACCAACTT,Kd,ZFP SBS#1265,0.077 nM
same,Kd,ZFP SBS#1264,0.21 nM
GAGTGTGTG (dsDNA) DNA 1: GAGTGTGTG DNA 2: CACACACTC,Kd,ZFP SBS#1260,1.8 nM
same,Kd,ZFP SBS#1259,1.5 nM
